From patent publication US20070141716

Tests used:
[1] = molecular target: UbcH5c, P61077
[2] = molecular target: UBC13/Uev1 heterodimer, P61088
Sequence of UBC13/Uev1 heterodimer, P61088 (P61088 whole entry, chain 1 of 2): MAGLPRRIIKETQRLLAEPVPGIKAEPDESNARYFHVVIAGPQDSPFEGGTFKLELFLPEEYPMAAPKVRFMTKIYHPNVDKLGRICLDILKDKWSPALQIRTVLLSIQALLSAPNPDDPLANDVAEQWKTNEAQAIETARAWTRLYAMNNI
Sequence of UBC13/Uev1 heterodimer, P61088 (chain, as listed by the source, chain 2 of 2): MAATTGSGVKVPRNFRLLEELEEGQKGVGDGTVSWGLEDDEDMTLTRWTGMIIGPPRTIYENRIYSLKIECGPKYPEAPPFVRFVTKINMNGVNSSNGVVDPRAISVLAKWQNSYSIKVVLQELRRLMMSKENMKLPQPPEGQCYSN

Sequence of UbcH5c, P61077 (P61077 whole entry): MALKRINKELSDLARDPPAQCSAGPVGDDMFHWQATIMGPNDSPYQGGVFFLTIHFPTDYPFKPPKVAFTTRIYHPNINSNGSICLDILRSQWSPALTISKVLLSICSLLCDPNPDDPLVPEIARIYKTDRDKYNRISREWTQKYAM

B1: glutathione-S-transferase protein (GST)-PEM-3-like fusion protein (protein)
chain: MMAAMLSHAYGPGGCGAAAAALNGEQAALLRRKSVNTTECVPVPSSEHVAEIVGRQGCKIKALRAKTNTYIKTPVRGEEPIFVVTGRKEDVAMAKREILSAAEHFSMIRASRNKNGPALGGLSCSPNLPGQTTVQVRVPYRVVGLVVGPKGATIKRIQQQTHTYIVTPSRDKEPVFEVTGMPENVDRAREEIEMHIAMRTGNYIELNEENDFHYNGTDVSFEGGTLGSAWLSSNPVPPSRARMISNYRNDSSSSLGSGSTDSYFGSNRLADFSPTSPFSTGNFWFGDTLPSVGSEDLAVDSPAFDSLPTSAQTIWTPFEPVNPLSGFGSDPSGNMKTQRRGSQPSTPRLSPTFPESIEHPLARRVRSDPPSTGNHVGLPIYIPAFSNGTNSYSSSNGGSTSSSPPESRRKHDCVICFENEVIAALVPCGHNLFCMECANKICEKRTPSCPVCQTAVTQAIQIHS
ubiquitin ligase activity by TR-FRET [1]: PEM-3-like acts as an E3 ligase with both UbcH5 and UBC13/Uev1 | free polyubiquitin chain formation, immunoblot [2]: free polyubiquitin chains were only generated in the presence of UBC13/Uev1 heterodimer and a complete ubiquitin conjugation system | in vitro self-ubiquitination, anti-ubiquitin immunoblot [2]: high molecular weight PEM-3-like-ubiquitin adducts were detected by anti-ubiquitin immunoblot analysis | ubiquitin ligase activity by TR-FRET [2]: PEM-3-like acts as an E3 ligase with both UbcH5 and UBC13/Uev1
